Laboratory results: PMC5730846 (2017)

Assays:
[1] = target: T1, recombinant Hsp90α (human, UniProt P07900 1-732); assay: FP; AMPPNP
[2] = target: T1, recombinant Hsp90α; assay: FP; ADP

Kd [1]: 240 nM | Kd [2]: 810 nM
B1: Tsc1-D-His6 labeled with Texas Red maleimide (domain or fragment)
chain: DGCSDSMVGHNEEASGHNGETKTPRPSSARGSSGSRGGGGSSSSSSELSTPEKPPHQRAGPFSSRWETTMGEASASIPTTVGSLPSSKSFLGMKARELFRNKSESQCDEDGMTSSLSESLKTELGKDLGVEAKIPLNLDGPHPSPPTPDSVGQLHIMDYNETHHEHS
modifications: Texas Red C2 maleimide label, 0.8 labels/Tsc1-D
